Assay: soluble on expression in E. coli; label from the status in PepcDB or PDB records

Sequence | soluble on expression in E. coli
MSLLKQRFVLDTTALTDLQTREVMGYASLCEGMKAILDLIADARLHFGISCYVPYPSVYKEMYEFASRNGCDREVVAKIDTWLVKKSPDRYRVSVTSQIFHEYVAYMRERINRGMGVAEDAIWEAATECLFMENPQNKKKEYKEEVEREVIGGIIGKFRNKYRAALRYGILDSAPDIDVLILAKELDAAVIASDYGIEKWAEQLGVRFVPANVFPMMIQEYLKHLPENENEPEYENRDKSKEGSSGEIEFIEGHHHHHH | soluble
MSLLQSALDFLAGPGSLGGASGRDQSDFVGQTVELGELRLRVRRVLAEGGFAFVYEAQDVGSGREYALKRLLSNEEEKNRAIIQEVCFMKKLSGHPNIVQFCSAASIGKEESDTGQAEFLLLTELCKGQLVEFLKKMESRGPLSCDTVLKIFYQTCRAVQHMHRQKPPIIHRDLKVENLLLSNQGTIKLCDFGSATTISHYPDYSWSAQRRALVEEEITRNTTPMYRTPEIIDLYSNFPIGEKQDIWALGCILYLLCFRQHPFEDGAKLRIVNGKYSIPPHDTQYTVFHSLIRAMLQVNPEERLSIAEVVHQLQEIAAARNVNPKSPITELLEQNGGYGSATLSRGPPPPVGPAGSGYSGGLALAEYDQPYGGFLDILRGGTERLFTNLKDTSSKVIQSVANYAKGDLDISYITSRIAVMSFPAEGVESALKNNIEDVRLFLDSKHPGHYAVYNLSPRTYRPSRFHNRVSECGWAARRAPHLHTLYNICRNMHAWLRQDHKNVCVVHCMDGRAASAVAVCSFLCFCRLFSTAEAAVYMFSMKRCPPGIWPSHKRYIEYMCDMVAEEPITPHSKPILVRAVVMTPVPLFSKQRSGCRPFCEVYVGDERVASTSQEYDKMRDFKIEDGKAVIPLGVTVQGDVLIVIYHARSTLGGRLQAKMASMKMFQIQFHTGFVPRNATTVKFAKYDLDACDIQEKYPDLFQVNLEVEVEPRDRPSREAPPWENSSMRGLNPKILFSSREEQQDILSKFGKPELPRQPGSTAQYDAGAGSPEAEPTDSDSPPSSSADASRFLHTLDWQEEKEAETGAENASSKESESALMEDRDESEVSDEGGSPISSEGQEPRADPEPPGLAAGLVQQDLVFEVETPAVLPEPVPQEDGVDLLGLHSEVGAGPAVPPQACKAPSSNTDLLSCLLGPPEAASQGPPEDLLSEDPLLLASPAPPLSVQSTPRGGPPAAADPFGPLLPSSGNNSQPCSNPDLFGEFLNSDSVTVPPSFPSAHSAPPPSCSADFLHLGDLPGEPSKMTASSSNPDLLGGWAAWTETAASAVAPTPATEGPLFSPGGQPAPCGSQASWTKSQNPDPFADLGDLSSGLQGSPAGFPPGGFIPKTATTAKGSSSWQTSRPPAQGASWPPQAKPPPKACTQPRPNYASNFSVIGAREERGVRAPSFAQKPKVSENDFEDLLSNQGFSSRSDKKGPKTIAEMRKQDLAKDTDPLKLKLLDWIEGKERNIRALLSTLHTVLWDGESRWTPVGMADLVAPEQVKKHYRRAVLAVHPDKAAGQPYEQHAKMIFMELNDAWSEFENQGSRPLF | soluble
MSLNAPSNAPWLSHYDEGIPSSLAPYPRVTLPDILREAARKHPEDPALLFLGNTISYGELERESNAFAAALHASEVRKGNRVAVLLPNSPQMIIAEFGIWKAGGIAVMLNPLWTEHELERAIDECEAEIAVVLAPFYEKINHLRSRTSLKTVVITDLHDYFPAAMRNASPANGAVATMLQSSDLRMPAMIESYSGSQTPAVEVSPKDPALFIFSGGTTGKPKCAIGRHEASVMNGMQVDAWFRPVLGSDRVPVMLNLPLHHVYPQVAIIGYGFVTRSPLVLIPDPRDFELLIKTIKQYKVGLLPGIPTLFNALAAHPLLKEAPGSLDSLKLIISAAAPLHNKTRRRFKELTGATIIDAYGLTEAMVSPVCQPLNGIRKNGSVGLPVPDVEMRIVDADTGIEVLPSMEIGEIVIRSPQLMTGYWKNPEETAEVLRDGWLYTGDLGYIDDDGYLYIVDRKKDVIKPSGFQVWPSEVEEVIAMHPAVLETGVAGVPDDYQSEAVKAWVVLHKGHSLDAEQLKNWCRQTLAPYKVPKHIEFCEQLPKSALGKVLRQALVEQHLTSEGHHHHHH | soluble
MSLNAQNAGINFLHGTTWAEAVAKAKAENKLIFIDFYTQWCGPCMNMAQTVFSLPTVGYYYNQTFINLKIDAEEGEGITLAKKYGVRSYPTYAFVDPATEEIVHRSSSRQTPEQFIQTGKDANIPTKRSFYLQEQYTKGNRERAFLIDYINYHYSVYARNNVQAAFDELIKGGAKLTDPDVWEVYVNTINGMNPYLKQVSDNYADFCQRFGKKAVDAKLAKETSYGELAEIEALCNYEGKDFNLKMIRINNDIREQKYEAAATQIDAMIADTTVNQQELISRLKFIARLGYKAEELPEFWFNKCVGYLQYIAYNQTDRDDAFIHQEYAAALEMVLRKLNGKAPIPACLSTEPAYGKKVYNMRPDALKMKPKREGHHHHHH | soluble
MSLNDTFVVVDLETTGHSVKKGGRIIQIGMTFIKKRQIVDHFESFVNPGQLIDRQIQQLTHISQKDVQNAPYFEEIAPLLQNLLQNTVIIAHNVNFDYPYLNDEFERTGFPLLKSAAIDTVQLAQIMFPTAPGYRLLDLTTYLNITLKNAHRANADAHATALLFLKFWKKLEELPDITLKQLQQGDWPLLRQTQQFLKLVHSKNEGHHHHHH | not soluble
MSLNEQRFFRFLRERIGLDVESVGAPMVERALRQRCVAAGAMDLDDYWLRLQQSADEQQALIEAVIVPETWFFRYPESFTALASLAHKRLAQLAGARPLRLLSLPCSTGEEPYSLAMALFDAGMAPGAFLVDGMDISPSSVAKAGQAVYGRNAFRGSELGFRERYFDALDEGHRLHERVRQQVSLRVGNVLDPALASRDGLYDFVFCRNLLIYFDVPTQQRVFEVLKRLLHPQGVLFIGPAEGSLLARMGMRPLGIAQSFAYVRHEGDSAPLAAAPAQTAKRAFTTLPAPVYPQPSVPLPRSRRVLPVAARPARAREHSHEGASELLAGIARLANAGASEQARSECQRYLSQYPPSAQVYYWLGLLSDTEGDAQQALSHYRKALYLEPQHPEALVHLAALLAAQGDLAGARRLQERAARAGRESEREGHHHHHH | soluble
MSLNETKQFIKRHLFSARWLVRNLQQRYSTIERIAEFLAVNQYEFFTQPDGQLKPLTMKTIADALELHESTIARTVSNKYINSPKGIFSLRSFFTTKYTSEEGEDLSAKTVKEAILEIISGENKLRPFSDEKISEFLKSKGITCARRTVAKYRQALDLGNTQQRKKFHQSEGHHHHHH | soluble
MSLNEVHSIHGHTLLLITKPSLQATALLQHLKQSLAITGKLHNIQRSLDDISSGSIILLDMMEADKKLIHYWQDTLSRKNNNIKILLLNTPEDYPYRDIENWPHINGVFYAMEDQERVVNGLQGVLRGECYFTQKLASYLITHSGNYRYNSTESALLTHREKEILNKLRIGASNNEIARSLFISENTVKTHLYNLFKKIAVKNRTQAVSWANDNLREGHHHHHH | soluble
MSLNGNATDSSSSTSSMTENSDGQKQNNEWFHGVLQRQDADELLVKPGSFLLRASEVHGKMSMILSVRHDGKLHNIAVNSDTGENFWFEGHREKSIDQLVQWHMTTSTPITKTSGVKLKYPIGKADWIISHENVIFIKKLGEGAFGEVSLAECEIGGRKVETAVKTMRCQMTRDTRAAFMKEARLMRKYSHPHIVRIIGKIIVKHLPKVGLAVDAHPLMIVMEMCPHGSLLSFLRKNKGKTTLSERLRFCIESADGLAYLEKKQCLHRDIAARNCLLSITDQIKISDFGLSDDKRTEMHDDTLDKVPVKWLAPEVMQDKLYSLKSDVWAFGVLMWEIYADGADPYPGMTNLVTRAKIFCDDYRMTFPETTPPTISEIALKQCWAKLPSDRATMKTVHHKLKDLSMPMSDVSFSMKMKR | not soluble
MSLNINKVFYHSSTNMNEVPDNSVDLIITSPPYFNIKDYAKNGTQDLQHSAQHVEDLGALEKYEDYLLGLLKVWLECYRALKPNGKLCINVPLMPMLKKVLNTHYNRHIFDLHADIQHSILHDLNNMLKNKPKMFLLDVYIWKRANPTKRLMFGSYPYPRNFYAQNTIEFIGVFVKDGKPKQPTEEQKEQSQLTQEEWVEFTKQIWEIPIPNKNDIAFGKHAALMPAELARRLIRLYSCVGDVVLDPFSGSGTTLREAKLLKRNFIGYELYENYKPLIEQKLGNLFDFEEGHHHHHH | soluble
MSLNIQQQVNEMFSGMINVTSPGAYKTATRGVITGGSVVLRNRISTANLISITPPSAKGGCGGINLYSGSFSFINGEEFVALMRNVASNAAGIVSGFAFELALDAMDAQTGGVIRNLANKIQALNQMFSNSCQLASGLVTNAKKAYEESTDFKSAMTAFGSNVSSDFFTAKSTKEDSPANRIAASGKAVQCENTGNVLWCAMMKSGLQSQILFGSDENAEFIMSMVGSYNVSLTNDASGGKNFAAHPMPKLITGEGLKILVEGSTNLDVKVYQCDQDDPDCSEPNIRTLTSFKGLETRILEDLQNNGILERFANGTATAADGNRIAYLASSRVGVNLMKITQKAGAQSGYDYLNQFAKKIAADASMSLIYQLLGHTEKGLTSLNMADAGKVIEDLRATKGELMDEYRSYIEDAMQGKDADGQAEKMLQMAPVFDSGTLPQGTINDNAGAEGHHHHHH | not soluble
MSLNKLSNVTLSAEQEKLRERVLSFMRSNLSQYKSDWKHPAMFVIQGDAGTGKSVILNSLFNEIQKLSQFSPSSEDILHGTHNYLVVNHPEMLKLYIRISDSFKYISKSSLERPTSLINNLQKRKVMADVVIVDEAHLLATSKDAFKRFYGENHLKDLMSLCKVLVLVYDDKQALRMGSYWDEGSNNGATLKDFYNEIPPKSRDWYTLKQQFRVAAPQNVLNWIDQISVAGKEGHHHHHH | not soluble
MSLNKLVDAHCHVITDPDNTFCGDDGGSQGTLRCVMSSNPYDWNNLKKLAGRSTSKNDICVGFGVHPWYSHLFYVGSRRDKVSHYQDVLEYKNEEQFDSLVQVLPEPLDLEEYIKREFNDTLVSVIGEIGLDKLFRLPANGFYMQNEKARLTTVKVKLSHQETVFRRFCRLARHTSKPISIHDVKCHGKLNDICNEELLTYHSVKICLHSYTGSKETLLGQWLKKFPPDRIFVSLSKWINFKDPEEGDALVRSLPSTCILTETDYPIDNPDPSYQKALTEQLQYLNAQIARAWDETLDASQAALRVYENFQKFIKEGHHHHHH | not soluble
MSLNKQDGENTLQHEKSSSFGYWCSPSPEQLERLSLKQLAAVSNFVIGRRGYGCITFQHDVDLTAFTKSFREELFGKIVIFRSSKTVEVYPDEATKPMIGHGLNVPAIITLENVYPVDKKTKKPMKDTTKFAEFQVFDRKLRSMREMNYISYNPFGGTWTFKVNHFEGHHHHHH | soluble
MSLNKTKDIAASPLCFVSPYPQLAKAAEALVAQLDYAVTIHQTTLNRILDELPLLESRGHQVLISRGGCAEILKKHSKLPVVEIKMSGYDILDALIPFKGQKGTVGIVGFSSVIKGCARVAEQLNINYKIFTLQGNDKETISCLKRQLASTPLDCIVGDTVCQDYFSPLGSQFRLLDSSPASITEALEEARSLYLAFRSQLLERHHLQLILDQFDKAVITLDDTGALLHYNKYASQLFKINASGEIYDASFLKQVLHQERHTLREGKTVSAKVVDTPQGAMVVNLYPVFAARQLSRVVLTMQTVSSLQGAEHHVRRQELSRRGLSAREGHHHHHH | soluble
MSLNKVLVVEDEQLLAQNLQDYLSAQGLEVRIAHDGAEGIGLAETFAPDVLVFDYRLPDMEGFEVLDAVRQNRTCHFVLITGHPTAEVCERARQLGVSHILFKPFPLAELARAVCDLLGIQREAKPGASPSEGFVERRQSRTESFPLQLYDGSWVLADRRRNRSEAMAPDDDQMLTGEEGHHHHHH | not soluble
MSLNMTSKETKEGLAGYFSSDAAKMQSNNVSPVANNPFVQSTDKLDTRDFKITEVERSHYAIAQKLRQMLMADATPQSASGISADDVGVQLRVNSDIMYAPGSAELAPEGAKVLDDVIRILKEYNLYLVVRGHTDSGEPRNSIYPSNWELSGARAAAAVRYIITHGEIKPTRLRSIAYADTRPLEPNTSPDSRAKNRRVEFYFHRPEVMSYSVVYEGHHHHHH | soluble

Reference: the DeepSol protein solubility set
